The target of series [1] is T1, Cre recombinase monomer with Y324F mutation.
T1 chain: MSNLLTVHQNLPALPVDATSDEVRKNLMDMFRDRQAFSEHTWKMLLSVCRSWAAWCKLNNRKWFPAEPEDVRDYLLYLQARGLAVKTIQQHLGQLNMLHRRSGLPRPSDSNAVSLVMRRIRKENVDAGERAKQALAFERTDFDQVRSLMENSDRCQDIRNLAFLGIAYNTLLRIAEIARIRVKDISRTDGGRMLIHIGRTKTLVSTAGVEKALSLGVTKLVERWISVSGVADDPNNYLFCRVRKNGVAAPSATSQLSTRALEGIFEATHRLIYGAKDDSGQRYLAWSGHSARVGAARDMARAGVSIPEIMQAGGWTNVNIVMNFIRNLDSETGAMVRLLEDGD

Series [2] deals with T2, Cre recombinase monomer with W315R mutation.
T2 chain: T1 chain with W315R, F324Y

Series [3] deals with T3, Cre recombinase monomer with Y324C mutation.
T3 chain: T1 chain with F324C

The target of series [4] is T4, Cre recombinase monomer with W315T mutation.
T4 chain: T1 chain with W315T, F324Y

Series [5] addresses T5, Cre recombinase monomer with Q311R mutation.
T5 chain: T1 chain with Q311R, F324Y

The target in series [6] is T6, Cre recombinase monomer with K201I mutation.
T6 chain: T1 chain with K201I, F324Y

For series [7], the target named is T7, Cre recombinase monomer with K201R mutation.
T7 chain: T1 chain with K201R, F324Y

Series [8] addresses T8, Cre recombinase monomer with W315N mutation.
T8 chain: T1 chain with W315N, F324Y

Series [9] addresses T9, Cre recombinase monomer with K201N mutation.
T9 chain: T1 chain with K201N, F324Y

Series [10] has as its target T10, Cre recombinase monomer with R292G mutation.
T10 chain: T1 chain with R292G, F324Y

The target in series [11] is T11, Cre recombinase monomer with W315I mutation.
T11 chain: T1 chain with W315I, F324Y

Series [12] deals with T12, Vika recombinase monomer with Q330R mutation.
T12 chain: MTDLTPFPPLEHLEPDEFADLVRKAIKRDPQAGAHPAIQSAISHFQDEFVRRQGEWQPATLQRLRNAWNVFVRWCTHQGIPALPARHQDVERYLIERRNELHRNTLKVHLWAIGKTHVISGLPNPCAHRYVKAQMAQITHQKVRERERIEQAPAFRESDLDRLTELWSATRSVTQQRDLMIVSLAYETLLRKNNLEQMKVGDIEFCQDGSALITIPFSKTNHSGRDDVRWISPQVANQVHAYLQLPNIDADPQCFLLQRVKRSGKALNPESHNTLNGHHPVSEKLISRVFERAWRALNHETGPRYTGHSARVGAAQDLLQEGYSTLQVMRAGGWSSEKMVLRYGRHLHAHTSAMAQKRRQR

Five proteins from patent publication US20230183713A1, “SITE-SPECIFIC RECOMBINASES FOR EFFICIENT AND SPECIFIC GENOME EDITING” (TECHNISCHE UNIVERSITÄt DRESDEN, published 2023) can be followed below.

Residue numbers refer to the chain shown, from its start. Names and notes keep the numbering of the source.

B1: Cre recombinase monomer with K201F mutation (protein)
chain: T1 chain with K201F, F324Y
B1: the “Median dimer activity (recombination on loxP)” value (from here on “Median dimer activity”) in series [1] is listed as 54%; in series [2], 29%; in [3] it was 98%; in series [4], 41%; in series [5] it was 94%; in series [6] it was 72%. The “Median dimer activity” value in series [7] stood at 59%.

B2: Cre recombinase monomer with E129R mutation (protein)
chain: T1 chain with E129R, F324Y
On to B2, for which the “Median dimer activity” value in [8] was 30%; in [5], 93%; in [9] it was 35%; in series [7], 26%.

B3: Cre double mutant CreK201R+Q311R (both mutations in the same monomer) (protein)
chain: T1 chain with K201R, Q311R, F324Y
Consider B3, for which the “recombination on loxP excision substrate in E. coli” value is on record as “showed no observable recombination of the loxP target sequence”.

B4: Cre recombinase monomer with K201Q mutation (protein)
chain: T1 chain with K201Q, F324Y
As for B4, the entries for the “Median dimer activity” value in series [10], in series [5] and in series [11] were 58%, 94% and 30%, respectively.

B5: Vika recombinase monomer with K219R mutation (protein)
chain: T12 chain with K219R, R330Q
In the case of B5, the “recombination on vox excision substrate in E. coli” value in [12] was “A similar activity profile (although with some loss of activity) was seen when Vika^K219R and Vika^Q330R were co-expressed on the vox target sequence”.
